PMC7181406
Several values for one entry are separate records, joined by “and”; a condition that tells them apart may be missing. Equal entries are not always repeated. Where two headings read alike, the source gives them in different places. Blank lines part the entries; values can stand above or below the substance they belong to.

Key:
Experiment in all cases: TIRF microscopy
[1] = target: taxol-stabilized microtubules assembled from porcine brain tubulin (porcine) (UniProt P02550)
[2] = target: taxol-stabilized microtubules assembled from porcine brain tubulin (porcine) (UniProt P02550); remark: listed apart in the source
[3] = target: taxol-stabilized microtubules assembled from porcine brain tubulin (porcine) (UniProt P02550); remark: listed apart in the source
[4] = target: taxol-stabilized microtubules assembled from porcine brain tubulin (porcine) (UniProt P02550); remark: listed apart in the source
[5] = target: taxol-stabilized microtubules assembled from porcine brain tubulin (porcine) (UniProt P02550); remark: listed apart in the source
[6] = target: taxol-stabilized microtubules assembled from porcine brain tubulin (porcine) (UniProt P02550); remark: listed apart in the source
[7] = target: taxol-stabilized microtubules assembled from porcine brain tubulin (porcine) (UniProt P02550); remark: listed apart in the source
[8] = target: taxol-stabilized microtubules assembled from porcine brain tubulin (porcine) (UniProt P02550); remark: listed apart in the source
[9] = target: taxol-stabilized microtubules assembled from porcine brain tubulin (porcine) (UniProt P02550); remark: listed apart in the source
[10] = target: taxol-stabilized microtubules assembled from porcine brain tubulin (porcine) (UniProt P02550); remark: listed apart in the source
[11] = target: taxol-stabilized microtubules assembled from porcine brain tubulin (porcine) (UniProt P02550); remark: listed apart in the source
[12] = target: taxol-stabilized microtubules assembled from porcine brain tubulin (porcine) (UniProt P02550); remark: listed apart in the source
[13] = target: taxol-stabilized microtubules assembled from porcine brain tubulin (porcine) (UniProt P02550); remark: listed apart in the source

- landing rate (motors μm^−1min^−1nM^−1) [1]: 0.11
- landing rate (motors μm^−1min^−1nM^−1) [2]: 0.01 and 0.005
- landing rate (motors μm^−1min^−1nM^−1) [3]: 0.03
- landing rate (motors μm^−1min^−1nM^−1) [4]: 0.06
- landing rate (motors μm^−1min^−1nM^−1) [5]: 0.05
- landing rate (motors μm^−1min^−1nM^−1) [6]: 0.58
- landing rate (motors μm^−1min^−1nM^−1) [7]: 2.72
- landing rate (motors μm^−1min^−1nM^−1) [8]: 0.02
- landing rate (motors μm^−1min^−1nM^−1) [9]: 0.07
- landing rate (motors μm^−1min^−1nM^−1) [10]: 0.03
Substance: KIF5B_(1-560)-mScarlet (from UniProt P33176 1-560) (domain or fragment)

- landing rate (motors μm^−1min^−1nM^−1) [11]: 0.83
- landing rate (motors μm^−1min^−1nM^−1) [1]: 5.44
- landing rate (motors μm^−1min^−1nM^−1) [12]: 6.04
Substance: KIF5B_(K-insert)-mScarlet (from UniProt P33176 1-560) (domain or fragment)

- fluorescence intensity on microtubules [1]: 13200 A.U.
- fluorescence intensity on microtubules [13]: 13700 A.U.
Substance: TMR-GST-dynein motor domain (SNAPf-GST-hDyn) (domain or fragment)

- fluorescence intensity on microtubules [1]: 44200 A.U.
Substance: p150-mScarlet (from UniProt Q14203-1 1-1278) (natural protein)
